Measured values reported in patent US20170128554A1.

Biological target: Fetuin (denatured; sialylated complex N-linked glycans) (UniProt P12763)
Experiment: fetuin pull-down from cell lysates, low salt buffer, SDS-PAGE band quantification

Fetuin (denatured; sialylated complex N-linked glycans), sequence (P12763 19-359, one chain of several): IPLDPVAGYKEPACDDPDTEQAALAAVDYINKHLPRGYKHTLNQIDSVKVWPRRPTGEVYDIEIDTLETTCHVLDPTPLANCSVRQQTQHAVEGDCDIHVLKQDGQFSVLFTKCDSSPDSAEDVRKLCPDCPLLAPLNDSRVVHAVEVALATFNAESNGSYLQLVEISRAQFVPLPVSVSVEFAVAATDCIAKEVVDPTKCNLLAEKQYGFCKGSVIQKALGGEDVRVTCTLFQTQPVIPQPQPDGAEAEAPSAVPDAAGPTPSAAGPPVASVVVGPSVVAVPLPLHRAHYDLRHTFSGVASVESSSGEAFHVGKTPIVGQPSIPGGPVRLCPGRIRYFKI

fold ability to be pulled down by immobilized fetuin, against wild type Fbs [times]	fold capacity to interact with fetuin, against wild type Fbs [fold]	Substance
1.5		Fbs mutant S155A (from UniProt Q9UK22 113-296)
	2	Fbs mutant S155G (from UniProt Q9UK22 113-296)
